The values that follow come from patent publication US12194057B2, “NXTAR-derived oligonucleotides and uses thereof” (Washington University, priority 2020, dated 2025).

The subject of one data set is VCaP and 22Rv1 cells. Kind of data set: Proliferation assay, viable cells by trypan blue exclusion. In kind it is cell-based, human. Here is the method: NXTAR-N5 oligonucleotide was synthesized by IDT, and the oligonucleotide sequence is provided in TABLE 1 and FIG. 7C (* represents phosphorothioate bond modifications to avoid degradation by exonucleases). Equal numbers of VCaP and 22Rv1 cells were transfected with NXTAR-N5 or globin-derived oligonucleotide using X-tremeGENE360 (Sigma-Aldrich, Cat #08724121001), and the number of live cells was counted 96 h post-transfection using trypan blue exclusion method (Sigma, Cat #T8154). RNA was prepared from these cells, and qRT-PCR [SYBR PremixEx Taq II (Tli RNase H Plus)ROX, Clontech Takara, Cat #RR82LR] for AR and AR-V7 was performed as described earlier (see e.g., Mahajan et al. (2017) Cancer Cell).
The 22Rv1, VCaP, or LNCaP cells were retrovirally infected with control or NXTAR vectors and selected in puromycin medium containing 5% charcoal-stripped serum. Equal numbers of selected cells were seeded in 6-well plates followed by treatment with either (R)-9b, enzalutamide (Selleck Chemicals, Cat #S1250), or abiraterone (Selleck Chemicals, Cat #52246), and the number of viable cells was counted by trypan blue exclusion assay.

Another data set has as its system AR promoter. The experiment in a line: ChIP-qPCR (EZH2, H3K27me3) at AR promoter. In kind it is cell-based, human. On the procedure: Chromatin immunoprecipitation (ChIP), quantitative RT-PCR, and ChIP-qPCR were performed as described earlier (see e.g., Mahajan et al. (2017) Cancer Cell; Mahajan et al. (2012) J Biol Chem; and Mahajan et al. (2012) Nat Struct Mol Bio). Briefly, cells were either transfected, infected or treated with various inhibitors (R)-9b; CPTH2 (Sigma, Cat #C9873)], fixed in formaldehyde, lysed and ChIP was performed with antibodies recognizing AR (SCBT, sc-7305; RRID:AB_626671), GCN5 (SCBT, SC-365321; RRID:AB_10846182), H3K14ac (CST, 7627S; RRID:AB_10839410), H3K27me3 (CST, 9733S; RRID:AB 2616029), NCOR1 (Bethyl Laboratories, Cat #A301-145A; RRID:AB_873085), EZH2 (CST, 5246S; RRID:AB_10694683), or IgG (Abcam, ab2410; RRID:AB_303052), immobilized on Protein A magnetic beads (Biorad, Cat #161-4013). The complexes were washed with ChIP buffers, eluted with elution buffer (Active Motif, Cat #53008), and subjected to reverse crosslinking, followed by RNase and proteinase K treatments. A part of soluble chromatin was processed separately at the same time and designated as input DNA. Treated ChIP DNA and input DNAs were purified using PCR-DNA purification columns (Qiagen, Cat #28106). The amount of immunoprecipitated DNA was determined by real-time PCR.

A further data set has as its system VCaP cells. The experiment in a line: Xenograft of VCaP cells infected with pBABE vector or NXTAR in SCID mice. In kind it is in vivo. On the procedure:
All animal experiments were performed using the standards for humane care in accordance with the National Institutes of Health Guide for the Care and Use of Laboratory Animals. Mice breeding and colony maintenance were performed according to IACUC protocols approved by Washington University in St. Louis. 1.5×10^6 VCaP cells were suspended in 200 μL of PBS with 50% Matrigel (Corning, Cat #354428) and implanted subcutaneously into the dorsal flank of castrated 6-week-old male SCID mice (Charles River, Strain code: 236). Once the tumors reached approximately 100 mm^3, mice were randomized and injected subcutaneously with (R)-9b mesylate salt suspended in 6% Captisol (Cydex Pharmaceuticals). Tumor volumes were measured twice weekly using calipers. At the end of the study, all mice were humanely euthanized and tumors were extracted and weighed. To assess the role of NXTAR in tumor growth, 1.5×10^6 VCaP cells that were either infected with pBABE vector or NXTAR and selected with puromycin (Gibco, Cat #A1113803), implanted and growth of tumors was recorded. The personnel taking tumor volume measurement were blinded for the treatment groups.
To examine the direct effect of NXTAR restoration on prostate tumor growth, equal numbers of VCaP infected with either pBABE vector or NXTAR constructs were injected in the SCID mice. Palpable tumors were formed around week 5 that were measured twice a week thereafter.

B1: NXTAR: long non-coding RNA, 1476-nt transcript (SEQ ID NO: 58), expressed from retroviral or plasmid constructs (nucleic acid, listed as Homo sapiens)
chain: GGAAAAGGAAGGCTGCACAGAAGAACTGGCATTTGTGTTCTGCCTACAAAGCTGAAAAGGATTTCACCCAAATCAGGGAAGATCAGCCTTATGAGGTGGATATTATTGCCACAATAATTTTCCAGATGAAAAATGGAGGCCCAGAGATGTTAAGGAATTTGCCCAAGATCATGAAAAGACACTCTCCCCTATTGAGATGTCATGCAAGGATCAGTGCTGTGTGAAAATCCACATGAAGCAGGAAATGCAGGTGGTGGTGTCCAATCTGATTTCAAGATCTGAGAAGCTGTGCACTGCCTGAAAGGTATCTATTTAAGGTGTCACCAGACTCCTGCTCCACTCCTGCCCAAGGCCCAGCCCATCCAAGAGCAAAAGGCAAGTGGTGTTACAACCTTGGGATTTCCTGTATCTGCCCTCTTGCGGATAGCAGGACAGAGTCACAGCTGCATTAAATTCGCTTAAGACTTATTGAGACACTTCAACACTTCAACAACGACCTGTGAGATTAAGATTATTATTTTAAATTTACAGAAGGGGAAACTAAGAATTATAGACATGAAGTGACTCACCTATGACCACCTGGTGATAGAACCAGGACTAGAGCTCAGGTATGAAGATTTCTGGGGGAGTCCCTGAAAAAAAGGCTCCATATGGAATTACAATGTGGAAAAGGCCAAGGCCTCACCAACCCTTTTCTCTTCAACACCTGGATCCCTAAGTCCTTATTCGTAACCTCCTCTTTGGACAAGGTTTTGGTAGACAAAGCCAGAGCCTCTTGCACTGAGAAAGACAAATTCTCCTCTTGCAGTGAACCACAGGTAAATGCTCCAATAGAGAGTCCAAGCCAAACCTCCGGGTGTTATTCATGACCCAGGCAAGTCTGCTTTCTCATTCCCCCTATCTCTAGACCGTTTTCCATTTGGGCTTCCTTTTCTTCTTTTATCCTCAAAGAAACATGTTTCCTTCTAGTAGGTTTGGCTGCCACCACTAGGGTCCTGGCTACAACTGGCCCTCAGGTAACTCTCTCACCTCTGAGTTGGATAGTATCCTCTCTCGTCCCCATACACAAGTGTTTCTCTTCCCAGACACCTTCCTTACACAATTTCCCATTTCTTTCTCATCTCACCCTTGCTTTAATCAACATAGTTCTTTCCCCTGAGATTACTCTTCAGCCTTTCTTGTTGAAGCACTGCCCAGTGGTTCTCTTGGGATTTCCATTTCTCTCCCCTCAGCTCTCTTGGTACCAAATTCTGTAAGCTTCTCTGGTTTTTGGTTTCTCTTCCTTCTTTTCCTTCCAGGCAACATTTACTCAATCTAGGCTTGGATGATCAGGTACTTCTGCCAGCCTGCCCACTAGGGAACTCTGGGCTAGGAATATGTCTCAATGGCACCATTATATTTGGAAGGACGCTTCTGTATTTACACTGAACACACTAAAATACTAAACTTGAAGCCAAAATCCCCTCTCTGGCTCCA
For the molecule B1, the sensitivity to abiraterone entry in the data set with VCaP and 22Rv1 cells (22Rv1 cells expressing NXTAR, 5 days) is given as “further sensitized them”. Also, in the data set with VCaP and 22Rv1 cells (VCaP and 22Rv1 cells expressing NXTAR), the “proliferation upon enzalutamide treatment” value is listed as “significantly compromised proliferation”. In addition, the proliferation result in the data set on VCaP and 22Rv1 cells (VCaP and 22Rv1 cells, NXTAR expression vs pBABE vector) is on record as “severe loss of proliferation”. Moreover, the “EZH2 binding at the AR promoter” value with AR promoter (LNCaP cells overexpressing NXTAR) is recorded as “significant binding”. In addition, the “deposition of H3K27me3 marks in the AR promoter” value with AR promoter (LNCaP, 22Rv1 and VCaP cells, NXTAR restoration) is “significant increase in deposition of H3K27me3 marks”. The tumor growth result in the data set with VCaP cells (NXTAR overexpressing vs vector-expressing VCaP cells) was “significant reduction in tumor growth”. Also, the “AR protein levels in tumors” value in the data set with VCaP cells (immunoblotting of tumor lysates) is on record as “significant reduction in AR protein levels”. Also, the tumor burden entry in the data set on VCaP cells (tumor weights and volume) was “significantly reduced”.
